Where no end group is shown, it is not given here. [ ]: non-standard residue; d: D form. pS = N[C@@H](COP(=O)(O)O)C(=O)O
Target: T1, GST (UniProt P08515 1-218 = GST)
T1 construct: Control for GST-Smad4; also called GST protein
Assay: peptide-Sepharose pull-down, anti-GST immunoblot
Excerpt: To investigate whether phosphorylated Ser465 and Ser467 of Smad2 are directly involved in heteromeric interaction with Smad4, phosphorylated and non-phosphorylated peptides corresponding to the C-terminus of Smad2 were made and tested for their ability to bind GST-Smad4 fusion proteins. Short C-terminal peptide of Smad2 SSMS (SNp; SEQ ID NO: 3) or its phosphorylated counterpart (SPp), as well as long C-terminal-peptide […] (LNp; SEQ ID NO: 4) or its phosphorylated counterpart (LPp), coupled to CNBr-Sepharose (peptide beads), were incubated with GST or GST-Smad4 fusion protein. For competition large excesses (200 μM) of non-phosphorylated short (SNp) or long (LNp) peptides or their phosphorylated counterpart (SPp and LPp, respectively) were used (block). Proteins bound to the beads, were resolved by SDS-PAGE, transferred to nitrocellulose membrane and immunoblotted with anti-GST antibodies. Migration positions of GST and GST-Smad4 are shown by double arrows. Molecular masses of standard proteins are indicated on the left side on gel in which protein-stained GST and GST-Smad4 are shown. […] The phosphorylated long peptide also bound GST-Smad4 more efficiently, than the non-phosphorylated counterpart, however, a considerable binding was observed also to the long non-phosphorylated peptide.

T1 sequence (P08515 whole entry): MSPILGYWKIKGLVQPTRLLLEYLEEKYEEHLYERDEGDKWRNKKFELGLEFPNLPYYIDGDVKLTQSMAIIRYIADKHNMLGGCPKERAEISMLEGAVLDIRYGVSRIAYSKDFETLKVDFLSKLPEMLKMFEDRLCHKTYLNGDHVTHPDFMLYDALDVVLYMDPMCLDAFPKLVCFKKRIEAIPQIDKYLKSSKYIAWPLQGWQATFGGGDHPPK

B1: short C-terminal peptide of Smad2 SSpMSp, doubly phosphorylated (peptide)
peptide: KKKS[pS]M[pS]
notes: The same phosphopeptide was the immunogen of the Smad2 phospho tail antibody; also called SPp
Does B1 bind?
Result: no binding

Source: patent publication US20020146774A1 (LUDWIG INSTITUTE FOR CANCER RESEARCH, published 2002)
